The supplement of paper PMC7125110
± gives the standard error. For some of these results: Fewer inactive variants are shown than the library holds.

B1: glmS ribozyme (parent)
chain: AUAAAAGCGCCAGAACUACAGAAAUGUAGUUGACGAGGAGGAGGUUUAUCGAAUUUUCGGCGGAUGCCUCCAAA

How the values were obtained:
Details in all cases: with glucosamine-6-phosphate
[1] = variants of: B1; assay: kcat; higher = faster cleavage; RNA array
Outline: (§1)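 Tiles of sequenced MiSeq chips were imaged over ~14 h at 37 °C. On them, barcoded ribozyme variants had been transcribed in situ by E. coli RNA polymerase and were tracked via a hybridised Cy3 probe while glucosamine-6-phosphate (40 μM to 10 mM) in HEPES/KCl/Mg(OAc)2 buffer flowed in. Per-tile medians, normalised to baseline and to non-cleaving reference variants, were fit to one- or two-exponential decays for kobs, and weighted Michaelis–Menten fits gave kcat and KM.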

[2] = variants of: B1; assay: KM; higher = weaker cofactor use; RNA array
Outline: as §1

[3] = variants of: B1; assay: self-cleavage kobs at 40 uM GlcN6P; higher = faster cleavage; RNA array
Outline: as §1

[4] = variants of: B1; assay: self-cleavage kobs at 160 uM GlcN6P; higher = faster cleavage; RNA array
Outline: as §1

[5] = variants of: B1; assay: self-cleavage kobs at 640 uM GlcN6P; higher = faster cleavage; RNA array
Outline: as §1

[6] = variants of: B1; assay: self-cleavage kobs at 2500 uM GlcN6P; higher = faster cleavage; RNA array
Outline: as §1

[7] = variants of: B1; assay: self-cleavage kobs at 10000 uM GlcN6P; higher = faster cleavage; RNA array
Outline: as §1

Variant	kcat [1] [s⁻¹]	KM [2] [µM]	self-cleavage kobs at 40 uM GlcN6P [3] [s⁻¹]	self-cleavage kobs at 160 uM GlcN6P [4] [s⁻¹]	self-cleavage kobs at 640 uM GlcN6P [5] [s⁻¹]	self-cleavage kobs at 2500 uM GlcN6P [6] [s⁻¹]	self-cleavage kobs at 10000 uM GlcN6P [7] [s⁻¹]
U30A C68U	0.000818 ± 0.00016	1730 ± 610	3.27e-05 ± 1.2e-05	9.37e-05 ± 2e-05	0.000204 ± 2.7e-05	0.000417 ± 6.6e-05	0.000776 ± 9.4e-05
U31C A48U	6.21e-05 ± 6.5e-06	2780 ± 1100	< 1e-05	< 1e-05	–	–	4.85e-05 ± 9.7e-06
U30G U45A	0.0197 ± 0.0054	1680 ± 600	0.000528 ± 9.3e-05	0.00157 ± 0.00042	0.00474 ± 0.0013	0.0101 ± 0.0026	0.0239 ± 0.0066
U30G U45G	0.00151 ± 0.00041	2200 ± 950	3.05e-05 ± 1.4e-05	7.13e-05 ± 2.2e-05	0.000382 ± 6.4e-05	0.00102 ± 0.00015	0.00103 ± 0.00021
U30A G66A	0.0034 ± 0.00044	1870 ± 370	8.19e-05 ± 1e-05	0.00021 ± 5.2e-05	0.000751 ± 0.00018	0.00197 ± 0.00024	0.0029 ± 0.00037
U30A G66U	0.000236 ± 1.9e-05	1720 ± 340	–	–	5.93e-05 ± 7.9e-06	0.000159 ± 1.6e-05	0.000195 ± 1.5e-05
U31A U55G C67G	0.000655 ± 6.8e-05	428 ± 100	5.68e-05 ± 1.9e-05	0.000166 ± 5.4e-05	0.000467 ± 0.00012	0.000505 ± 9.5e-05	0.000735 ± 0.00019
U30A G41C	4.61e-05 ± 3.9e-06	5270 ± 1100	< 1e-05	–	–	–	–
U30G G41A	0.000293 ± 2.6e-05	881 ± 160	–	4.24e-05 ± 1.1e-05	0.000124 ± 2e-05	0.00025 ± 4.4e-05	0.000248 ± 4.4e-05
U30G G41C	0.00013 ± 5.4e-06	2760 ± 240	–	–	–	6.27e-05 ± 1.2e-05	0.000101 ± 2.7e-05
G29U A33U	6.61e-05 ± 1.9e-06	3280 ± 300	–	–	–	2.87e-05 ± 9.6e-06	4.97e-05 ± 6.7e-06
G29U G38A G59A C67A U69G	2.86e-05 ± 6.2e-06	–	–	–	–	–	–
U30A A52G	0.00117 ± 0.00025	5730 ± 1500	–	4.07e-05 ± 1.7e-05	0.000114 ± 1.2e-05	0.00054 ± 0.00022	0.000737 ± 0.00012
U30C G59A	< 1e-05	–	–	–	–	–	–
U30C C50G	0.000183 ± 3.9e-05	–	0.000126 ± 3.1e-05	0.000338 ± 0.00011	0.000179 ± 4.8e-05	0.000149 ± 3.8e-05	0.000318 ± 9.9e-05
U30C C50U	< 1e-05	–	–	–	–	–	–
U30C A36C	< 1e-05	–	< 1e-05	–	–	< 1e-05	< 1e-05

Variant	kcat [1] [s⁻¹]	KM [2] [µM]	self-cleavage kobs at 40 uM GlcN6P [3] [s⁻¹]	self-cleavage kobs at 160 uM GlcN6P [4] [s⁻¹]	self-cleavage kobs at 640 uM GlcN6P [5] [s⁻¹]	self-cleavage kobs at 2500 uM GlcN6P [6] [s⁻¹]	self-cleavage kobs at 10000 uM GlcN6P [7] [s⁻¹]
U30G U31C	0.00345 ± 0.00042	2530 ± 520	4.81e-05 ± 8.9e-06	0.000238 ± 3.9e-05	0.000578 ± 0.00015	0.00207 ± 0.0003	0.00267 ± 0.00025
U30C A33U	1.74e-05 ± 7.2e-07	944 ± 280	–	–	–	–	–
G29C C50U	< 1e-05	–	–	< 1e-05	–	–	–
U30G U56G	0.00526 ± 0.0018	–	0.000182 ± 3.7e-05	–	0.00189 ± 0.00062	0.00266 ± 0.00073	0.00705 ± 0.0016
U31C C68U	0.000617 ± 9.3e-05	1690 ± 450	3.14e-05 ± 9.7e-06	5.34e-05 ± 8.6e-06	0.000175 ± 1.2e-05	0.000321 ± 2.9e-05	0.000583 ± 4.8e-05
U31C C50G	6.62e-05 ± 2.8e-05	–	2.9e-05 ± 1.3e-05	0.000114 ± 1.7e-05	0.000104 ± 2e-05	8.9e-05 ± 1.3e-05	–
U31A C70U	0.0129 ± 0.0056	–	0.000386 ± 5.3e-05	0.000843 ± 0.00019	0.00235 ± 0.00031	0.0115 ± 0.0032	0.0113 ± 0.0017
U31A C70G	0.000226 ± 2.5e-05	570 ± 170	–	6.6e-05 ± 1.6e-05	0.000116 ± 1.3e-05	0.000169 ± 2.4e-05	0.000235 ± 3.2e-05
U30A U57A	6.66e-05 ± 1.8e-05	–	< 1e-05	–	3.87e-05 ± 1.5e-05	3.73e-05 ± 1.2e-05	6.84e-05 ± 1.4e-05
U30A U57G	2.86e-05 ± 9.5e-06	–	–	–	–	3.99e-05 ± 1.7e-05	–
U30G C68A	2.01e-05 ± 5.2e-06	–	–	–	–	–	–
U31A U69A	0.000105 ± 2.5e-05	–	–	7.05e-05 ± 1.9e-05	7.66e-05 ± 2.3e-05	0.000163 ± 2.9e-05	7.86e-05 ± 2.1e-05
U31C A52G C67U	0.000208 ± 9.4e-05	–	–	–	9.07e-05 ± 3.5e-05	6.61e-05 ± 1.4e-05	0.000147 ± 2.6e-05
U30A U45A C50U	< 1e-05	–	–	< 1e-05	–	–	–
G29U C61A	1.26e-05 ± 2.3e-06	–	< 1e-05	–	–	–	–
U30A G37C	< 1e-05	–	< 1e-05	< 1e-05	< 1e-05	–	–
U30G C70A	6.7e-05 ± 4.4e-06	410 ± 130	–	–	3.81e-05 ± 9.7e-06	6.45e-05 ± 9.7e-06	6.09e-05 ± 8.7e-06
